Results on one molecule are retold here after PMC9231623 (2022).

The target in this assay is T1, SNX5 PX domain (UniProt Q9Y5X3 25-172).
T1 chain: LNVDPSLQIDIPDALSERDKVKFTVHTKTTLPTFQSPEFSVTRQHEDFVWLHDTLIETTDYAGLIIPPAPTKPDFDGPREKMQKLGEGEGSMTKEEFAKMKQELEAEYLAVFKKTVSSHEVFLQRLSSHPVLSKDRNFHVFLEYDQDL
As to the kind of experiment: ITC. (In general: ITC needs no label: the signal is the heat of the interaction.)

What is called Kd is the free concentration of one partner at which half of the binding sites on the other are occupied at equilibrium, for simple one-to-one binding. Read a low Kd as higher affinity.

B1: NRP1 peptide (residues 894 to 918 of the cytosolic tail) (peptide)
peptide: not shown
In the case of B1, the Kd came out at 17.6 µM.
